A short description of the series: soluble on expression in E. coli; label from the status in PepcDB or PDB records.
In the case of “MKKTQLGRSFSKSFKQKKARASNASSDPFRFQNNGISYKGKLIGEQDVDKARGDAMCAEAMRTAKSIIKAAGAHKTRITLQINIDGIKVLDEKSGAVLHNFPVSRISFIARDSSDARAFGLVYGEPGGKYKFYGIKTAQAADQAVLAIRDMFQVVFEMKKKQIEQVKQQQIQDGGAEISSKKEGGVAVADLLDLESELQQIERGVQQLSTVPTNCDAFGASPFGDPFVDSFNSTATSNGTANMSGTQVPFGGLQLPQVQQMQMPMVQIPQQSHQNWPTSGAGSFDAWGQQQQQQQMHHAHSTPAFGTNGFSDTNPFASAFNTQARPPPLPTVAPTQYRDPFSVHSSAIPNSNIDWTGTGTTKENMAPSTNIQQQQSSLHHASTFANFGDNKAETWSEKKVTSLEEAFTKLVDMDALVGGQGIKETKKNPFEHILNPPKASLNSMSTTCSAAQMAATQQHTTSSHADPFGDDFFR”, the “soluble on expression in E. coli” value is recorded as “not soluble”.
Regarding “MGSDKIHHHHHHMTSANIQMAVYCFDVINAQLNREKEPPVPKEIPNVKLPLFVTWKKGHQHDLRGCIGTFSDLRLGEGLNEYAKTSAFHDSRFKPISREEVPSLQCGVSLLINFEPIHNFRDWTIGRHGVRMNFDDGHRNRSAVFLPEVAQEQGWNHVETIDHLIRKSGYGGHINDALRSALRIVRFQSSKLVLDYKDYVNYKQSHGLPLPR”, the “soluble on expression in E. coli” value was “not soluble”.
Turning to “MNTNHYYIRYGCAITLYDNHVSERERLTPKELRFSIEKAVSSFRIQAQEPFSPGSKARFSFVKRKDGNTKNGIFLSPHIVTKDMHAQKVWTKASKFLEIDYLGKDNEREGLLKKDNVSMSNIPISGEYLTFGEKDTGRGSAKISVEEQTYGLITTLTPLKPALQVGKDNFCIIPDIPLNQMVDFIALFDKMQITHLSGEAMLGNIDNKGIPHRPKIFRGNFPNSPKSDRMGAIALLGAIGEFAKHAEFSTLAQKVLDSLKGST”, the “soluble on expression in E. coli” value is “not soluble”.
Then “METMKSKANCAQNPNCNIMIFHPTKEEFNDFDKYIAYMESQGAHRAGLAKIIPPKEWKARETYDNISEILIATPLQQVASGRAGVFTQYHKKKKAMTVGEYRHLANSKKYQTPPHQNFEDLERKYWKNRIYNSPIYGADISGSLFDENTKQWNLGHLGTIQDLLEKECGVVIEGVNTPYLYFGMWKTTFAWHTEDMDLYSINYLHLGEPKTWYVVPPEHGQRLERLARELFPGSSRGCGAFLRHKVALISPTVLKENGIPFNRITQEAGEFMVTFPYGYHAGFNHGFNCAEAINFATPRWIDYGKMASQCSCGEARVTFSMDAFVRILQPERYDLWKRGQDRAVVDHMEPRVPA”, with “soluble”; and “MGHHHHHHSHMEFRSVAERICGDIVLSENSGEALRKWRSIFNASQSDLARKLGISPSVISDYESGRRKPGTAFLKKFVCALIELDGERGYQVLSKYRYFLESDHKAVLDIAEYQKTAEPSEFCEVIEGKMLTHFDKAIHGHTVIDSINAILSLNAFDFYRLYGLTSERALIFTRVSTGRSPMVAVRVSNLKPSAVVLHGLEAERVDEMAKKIAEIERIPLVVTEIAIGEIVKRLRRKFA”, with “not soluble”.
As to “MSLLVIVKVQQAKNPLERAFFYAVSPEDYYEQAERLLKEGVIDEEGLKKARIEEYVLGARFNANFHSYALKDVFGNFDFVGFSDRRQVNLQGFLNLPAKDQLKINVPVKNEEIGHFGVTMRESKQQEVYEAAEKFIEACKAEFPPGIIGMFGLQGAMAYSPEDETKLEFVIFDVSFRVPGDPAIGPTSPEMRNLTLKHGVKIEDPLDLTMMEIKKAMELKRMEEIVTEGHHHHHH”, the “soluble on expression in E. coli” value is “soluble”.
Turning to “MGLHYFLDHKKEDLYKSVQDVYKSDDRPWVVGFSGGKDSTVVVQIIFYALASMSKNELTKPVYIISSDTMVENPKILEHIDTQLLKMKKAANELELPIHVEKVMPNIKNTFWVNLIGRGYPAPRQKFRWCTDRLKIDPANNFILNKVSEFGETVVVLGVRKSESSTRAQVMNTHKVEGKILRRHTKLPNSYVYAPIEDFSLDDVWTYLMQVPNPWGADNADLLALYQDSQGECPLVIDNSTPSCGNSRFGCWVCTVVQEDKSLKGFIESGDEWLTPLLKFRNWLLENRDKEDYREKKRANGSVYLIGDEDNKRLGLGPYTLEHRKEILRKLLETEKQLQHPHQPKYELITIEELKEIRKIWFEKGDWEDSVLAIYEEVYGHRPNWDIEESKFLESEDIKLLKKLCHEEEVEFELVQKLVNLEFQHYGYKHRYGILKDINRILNEEWLHFDQLQQGDNYAD”, the “soluble on expression in E. coli” value is “not soluble”.
Regarding “MSLRIQDGTMRYTYKGVPTYKNPFDLALYQMLLWQQKPRTLIEIGSKWGGSALWFADMMCSFGVDCVIHSIDITPPSISVPGVTFHRGDGRDLAATLPADLMESLPRPIFVIEDADHHCETTLAVLRFFDRWLVAGEYIAVEDGIVDDLYGPEFVARLMGGPRRAVELFLRDRGQNYEIDTGLCDHFGTNVTWNVNGYLRRVREGHHHHHH”, the “soluble on expression in E. coli” value is given as “not soluble”.
On to “MQVIIISGLSGSGKSIALKVLEDSGYYCVDNLPASLLVVLINHLQTQQHAYVAVAIDMRSGENITVLPWQLKMIDKSIQIKFIFLEARTETLMQRFSETRRRHPLSDKNITLEEAIRREREALATLTGLGHHIDTSSLRPNVLRAFIKDFIADSRSPSQLTLLFQSFGYKHGIPLDADLVFDIRCLPNPFYDPQLKELTGHDPEVIRFMESQPDASKMLRDISSFLGTWLPAYIRDNRAYLTVAIGCTGGQHRSVYFAEKLALHFHDSAHVLVRHRGLAEYKPHYARR”, for which the “soluble on expression in E. coli” value was “not soluble”.
For “MGSDKIHHHHHHMQFSPEQDNALKAVSAWLKEGRSPLFRLFGYAGTGKTTLARYFAETVDGSVQFTAFTGKAAQVLRSKGASNACTIHSLIYCPRGEEEVSDEVTGKKSIAPTFALNRRSAAAQAKLIIVDECSMVDEQLARDLMSFRTPILVLGDPGQLPPISGGGFFSNGVPDFLLSEIHRQARDNPIVRLAMDVREGRDIPYGNYGAARVVTRKEVHQQLVLDADQLLVGINRTRYLYNKRLRVLKGFTAAYPQAGDKLVCLRNDPAKGLLNGSLWKVMTSQKETVKPGVNLLVKPEESERGVVKIKLLKALFENPDSDISWQLKKRYDDFDYGYALTVHKAQGSQWNNVVLFDESFAFRDMSARWLYTGITRAAERLTIVR” the value was “not soluble”.
Then “MAFVPPQAGYDRAITVFSPDGRLFQVNYAREAVKRGATAVGVKCNEGVVLAVEKRITSRLIEPESYEKIFQIDDHIAAASSGIIADARVLVNRARLEAQIHRLTYGEPAPLAVIVKKICDLKQMHTQYGGVRPFGAALLMAGVNEKPELYETDPSGAYFAWKAVAIGSGRNTAMAIFEEKYKDDMSLEEAIKLAIFALAKTMEKPSAENIEVAIITVKDKKFRKLSREEIEKYLNEVMKEVEEEEVKEKEEDYSELDSHY”, with “soluble”; and “MSLSDAVNKHPKSPNPQLCAVTLLGNLVATPDIRYRANPATAVTEIVLATSSKWLDKITNKYKEWTSYHHVKVEGELVELALLNANKGDIILLHGYLSNIKPKSTDKSTNHLGIVHANFVQKFEKGYTQAINQIHCSAQLTSKPKLMLTEQNKNITQANIVINQHIYNTDKQAWQTISVERAIHVWGKQAQYLAEHGDIGDELMLEGKLSYTSGVSKDQFIEVKNVHLFKGTLEHHHHHH”, with “soluble”; and “MGSTRWDAVNKFSVENWYPHLRKHTFKSHFITLNYNDIHYLMGNIPPDYDSSKLESIFNKILSEFNNKEVFMRLSTRSPKDSKFLFEEASTIMSKDFVYWNENDNKHQQLVSFVASMLKAMKIKSGRKIIETIAQSPRVYNDLLALVSSSNQSDCTTNVILREWHDIRPDHEFRVFVSRRHRKESIVTAISQYFHFLYFDKSPADCFNFLDEEDKKAVIKKFENYVLKSVDPDVAKFLNFSSEQDDDESSDCIREYIVDLALIPVSQYHGEITDENIIEIGANTYVMVVIELNPFAPAATGSGLFNWKNDLMMLWGKASCDYPVFKYRTTPREDLQSVSLLPSNYESVIKSALIKRLETSYSNSASQKERFFSSTKPVTESSGSALLDMVTKPLEHHHHHH”, with “soluble”.
Then “MAHHHHHHMMRIKQKAFVGKKICIAWEVLHDGKGWKAQGKALQILRFYAFSSEVYLMCRIRDADDKKQICNLVKAVDGIERHRVLFCTTEKGYEAFTRQIDPSLLITNNAAQVAFLKRVIQTLVLVGGDGVVASNVACVPSVEAIAVDLE”, with “not soluble”; and “MGSDKIHHHHHHMNLKTTLFNTTYKFKDIKDVLAKANEKKSGDEMAGIAASGARERVAAKTVLADITLEELRNNPVVSYEKDEITRVIQDSVDEEQYKKIKALTVGEFREFLLENDEDKIKEIRDGLTSEMIAAVTKLMSNMDLVYAAQKICNTAKCNTTIGRRGTFSSRLQPNHPTDNPQGIMASLIDGISYGVGDAVIGLNPVADTIESVSDVLKVFNDFTRKWRIPTQNCVLAHITTQMEALKNGVPIDLMFQSIAGSEIANKDFGISVALLDEAYELMKTKKSSKGPNFMYFETGQGTELSSEGNNRADQLVMEARCYGLAKRYKPFLVNTVVGFIGPEYLYDGKQVIRAGLEDHFMGKLTGLSMGVDTCYTNHMKADQNDLENLAMLLLAANCNYLMGIPCGDDVMLMYQSSSYHDIATLREISDKRPIKEFEKRMEELGIMKNGKLTRNAGDPSIFM”, with “not soluble”; and “MMTMWVFGYGSLMWNPGFPVARRELATLSGWSRSFCMSSIHHRGTEEKPGLVLALDAVHNARCRGIAFAVEPGHEARTLDELRERELISSAYLERELEIDLDIGERVCAVTYVIDPHHEQYCGGMPLERQAQIIATAIGGRGPNTEYLYNTAAHLAEIGLGDPDLDWLSARVREITSLEHHHHHH”, with “soluble”.
Regarding “MVELTPAAIQELERLQTHGVRRGQAAILRIQVQPSECGDWRYDLALVAEPKPTDLLTQSQGWTIAIAAEAAELLRGLRVDYIEDLMGGAFRFHNPNASQTCGCGMAFRVSRS”, the “soluble on expression in E. coli” value is “soluble”.
Regarding “MTPDWFAVVDATWPAADSRTDGTLTLREGRGGGKRVSAASASGAVSEPQIEAAEAAMRQMGQPPLFQLRPGDEGLDAALAGRGYSIVDPVNIYACPVSQLTDLPMPRVTVFALWEPLAIMRELWAEGGIGPGRLAVMDRVKGPKTGLLMRHQDKPGGVAFVAIHDGVAMLHALEIPPHQRRKGLGKWAMRGAAFWALDNGAHTLSVICTKANEGANALYRSLGMQLVGEYHYRLLQEERQTA”, the “soluble on expression in E. coli” value is listed as “not soluble”.
For “MGSDKIHHHHHHMALANFIDRAATAASQVLADFHLEDFKAALEKQVVAVAFDDQAASCAEGQATLDLAVRLLARLYPVLAILPLGSAASFQAQALERLAKSINPKVGIRRSGKSATICVVAGVTRPPLRCPTFFMGSDGWAAKLSRTDPVGSGSSLLPYGAGAASCFGAANVFRTIFAAQLTGAELDETIDLSLYSYDKTKAGEAGPIDIPVDLGETHLVGLGAIGHGSLWALARQPGLTGRLHVIDHEAIELSNLQRYVLAGQAEIGMSKAVLAATALRSTAIGVEAHPLTWAEYVARHGDWVFDRVGVALDTAADRLAVQGALPRWIANAWTQEHDLGISRHGFDDGQACLCCMYLPSGKSKDEHHLIAEELGIPEAHEQVKTLLQTNAGVPNDFVVRVATAMAVPFEPLAPFVGQPLRSFYQQAICGGLVFQLSDGSRRVRTVVPMAFQSALAGIMLAAELVKHSAGFPVGPTTSTRVNLLRPLGSRLHDPKAKDSSGRCICSDDDFIAAYRRKYGKSIVQLSDVSAA” the value was “not soluble”; for “MDLEMMLDEDYKEGICLINFSQIALSTALVNFPDKEKINLSMVRHLILNSIKFNVKKAKTLGYTKIVLCIDNAKSGYWRRDFAYYYKKNRGKAREESTWDWEGYFESSHKVIDELKAYMPYIVMDIDKYEADDHIAVLVKKFSLEGHKILIISSDGDFTQLHKYPNVKQWSPMHKKWVKIKSGSAEIDCMTKILKGDKKDNVASVKVRSDFWFTRVEGERTPSMKTSIVEAIANDREQAKVLLTESEYNRYKENLVLIDFDYIPDNIASNIVNYYNSYKLPPRGKIYSYFVKAGLSKLTNSINEF”, “soluble”.
